2 molecules from publication PMC3388087 (PLoS ONE, 2012) can be followed below.

For series [1], the target named is bat star (Patiria miniata) DGCR8 heme-binding domain, HBD-His6 (Patiria miniata (bat star)). The experiment in a line: SEC; size exclusion chromatography, last step of the purification; SEC buffer 400 mM NaCl, 20 mM Tris pH 8.0, 1 mM DTT; elution volumes compared (bat star HBD 13.8 mL; human HBD dimer; human NC9 monomer 2.6 mL later). Background: Size exclusion chromatography separates by hydrodynamic size, large species first.

Series [2] concerns the molecule itself. The description is as above.

Usually stoichiometry N stands for a count of units in the complex or per binding partner. In turn, “bat star (Patiria miniata) DGCR8 heme-binding domain, HBD-His6 (domain or fragment)” returned a stoichiometry N in series [1] of 2.

B1: human DGCR8 heme-binding domain, HBD-His6 (domain or fragment, UniProt Q8WYQ5 276-498, looked up)
chain: DGETSVQPMMTKIKTVLKSRGRPPTEPLPDGWIMTFHNSGVPVYLHRESRVVTWSRPYFLGTGSIRKHDPPLSSIPCLHYKKMKDNEEREQSSDLTPSGDVSPVKPLSRSAELEFPLDEPDSMGADPGPPDEKDPLGAEAAPGALGQVKAKVEVCKDESVDLEEFRSYLEKRFDFEQVTVKKFRTWAERRQFNREMKRKQAESERPILPANQKLITLSVQDAP
notes: Dimer of 54 kDa; also called human HBD; human HBD-His6; not shown: His6, C-terminal, kept
In the case of B1, the “stoichiometry N” value in series [2] was 2.
